Positions count from the first letter of the chain named. In names and notes the source's numbering stands.
What was measured:
[1] = target: single chain FcRn-β2m-his (human scFcRn, Acro Biosystems Cat. No. FCM-H5286) (human) (UniProt P55899); assay: SPR, antibody on CM5 chip, scFcRn 400-25 nM, pH 5.8 PBS
[2] = target: single chain FcRn-β2m-his (human scFcRn, Acro Biosystems Cat. No. FCM-H5286) (human) (UniProt P55899); assay: SPR, antibody on CM5 chip, scFcRn 400-25 nM, pH 5.8 PBS, 1:1 Langmuir
[3] = target: single chain FcRn-β2m-his (human scFcRn, Acro Biosystems Cat. No. FCM-H5286) (human) (UniProt P55899); assay: SPR, antibody on CM5 chip, scFcRn, pH 5.8

Chain of single chain FcRn-β2m-his (human scFcRn, Acro Biosystems Cat. No. FCM-H5286) (human) (P55899 other isoform, or with tags, fused parts or gaps): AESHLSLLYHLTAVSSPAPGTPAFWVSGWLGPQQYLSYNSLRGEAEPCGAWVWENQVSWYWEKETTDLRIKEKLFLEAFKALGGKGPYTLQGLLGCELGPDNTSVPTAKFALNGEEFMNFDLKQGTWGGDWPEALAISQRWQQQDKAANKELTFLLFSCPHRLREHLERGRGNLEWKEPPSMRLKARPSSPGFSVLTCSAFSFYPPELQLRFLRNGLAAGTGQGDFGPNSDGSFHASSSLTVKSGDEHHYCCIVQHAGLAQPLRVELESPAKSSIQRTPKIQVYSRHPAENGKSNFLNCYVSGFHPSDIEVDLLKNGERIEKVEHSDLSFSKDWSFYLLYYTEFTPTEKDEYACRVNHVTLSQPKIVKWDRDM

B1: Herceptin-IgG2 (wild type IgG2 with the Fab of trastuzumab) (antibody, part only; not given: Fab (trastuzumab), not shown: another chain or arm of the molecule)
Fc: ERKCCVECPPCPAPPVAGPSVFLFPPKPKDTLMISRTPEVTCVVVDVSHEDPEVQFNWYVDGVEVHNAKTKPREEQFNSTFRVVSVLTVVHQDWLNGKEYKCKVSNKGLPAPIEKTISKTKGQPREPQVYTLPPSREEMTKNQVSLTCLVKGFYPSDISVEWESNGQPENNYKTTPPMLDSDGSFFLYSKLTVDKSRWQQGNVFSCSVMHEALHNHYTQKSLSLSPGK
modifications: Glycosylated at N297 (HEK293F expression). The Fc is a disulfide-linked homodimer in the full IgG.
B1 showed a Kd [1] of 2140 nM.

B2: Herceptin-IgG2-DHS (V309D, Q311H, N434S) (antibody, part only; not given: trastuzumab Fab, not shown: another chain or arm of the molecule)
Fc: B1 Fc with V90D, Q92H, N215S
modifications: Glycosylated at N297 (HEK293F expression). The Fc is a disulfide-linked homodimer in the full IgG.
B2 was tested, and the Kd [2] was 377 nM, the koff [2] was 0.086 s⁻¹ and the kon [2] was 227000 M⁻¹ s⁻¹. It also gave a fold enhanced KD comparing with wild type IgG2 [3] of 5.7 fold.

B3: Herceptin-IgG3 (wild type IgG3 with the Fab of trastuzumab) (antibody, part only; not given: trastuzumab Fab; H435 or R435 unclear, not shown: another chain or arm of the molecule)
Fc: ELKTPLGDTTHTCPRCPEPKSCDTPPPCPRCPEPKSCDTPPPCPRCPEPKSCDTPPPCPRCPAPELLGGPSVFLFPPKPKDTLMISRTPEVTCVVVDVSHEDPEVQFKWYVDGVEVHNAKTKPREEQYNSTFRVVSVLTVLHQDWLNGKEYKCKVSNKALPAPIEKTISKTKGQPREPQVYTLPPSREEMTKNQVSLTCLVKGFYPSDIAVEWESSGQPENNYNTTPPMLDSDGSFFLYSKLTVDKSRWQQGNIFSCSVMHEALHNHFTQKSLSLSPGK
modifications: Glycosylated Fc homodimer (HEK293F); one chain is given.
With B3 the Kd [1] was 4080 nM.

B4: Herceptin-IgG3-DHS (L309D, Q311H, N434S) (antibody, part only; not given: trastuzumab Fab, not shown: another chain or arm of the molecule)
Fc: B3 Fc with L141D, Q143H, N266S
modifications: Glycosylated Fc homodimer (HEK293F); one chain is given.
For B4, the Kd [2] was 739 nM, the koff [2] was 0.126 s⁻¹ and the kon [2] was 170000 M⁻¹ s⁻¹. It also gave a fold enhanced KD comparing with wild type IgG3 [3] of 5.5 fold.

B5: Herceptin-IgG4-DHS (L309D, Q311H, N434S) (antibody, part only; not given: trastuzumab Fab, not shown: another chain or arm of the molecule)
Fc: ESKYGPPCPSCPAPEFLGGPSVFLFPPKPKDTLMISRTPEVTCVVVDVSQEDPEVQFNWYVDGVEVHNAKTKPREEQFNSTYRVVSVLTVDHHDWLNGKEYKCKVSNKGLPSSIEKTISKAKGQPREPQVYTLPPSQEEMTKNQVSLTCLVKGFYPSDIAVEWESNGQPENNYKTTPPVLDSDGSFFLYSRLTVDKSRWQEGNVFSCSVMHEALHSHYTQKSLSLSLGK
modifications: Glycosylated Fc homodimer (HEK293F); one chain is given.
B5 gave a Kd [2] of 832 nM, a koff [2] of 0.151 s⁻¹ and a kon [2] of 281000 M⁻¹ s⁻¹. For the same binder, the fold enhanced KD comparing with wild type IgG4 [3] was 3 fold.
